Patent publication US8883964B2, “Compositions comprising modified collagen and uses therefor” (The Johns Hopkins University, priority 2004, dated 2014)
Square brackets hold non-standard residues; d marks the D form. Ends that are not written are not given here. Hyp = O=C(O)[C@@H]1C[C@@H](O)CN1

Columns and labels:
[1] = Dynamic light scattering of CMP functionalized gold NPs; assay type: physicochemical
Description: The thickness of the peptide layer on the gold NP surface was determined by dynamic light scattering (DLS) (FIG. 15). The peptide layer thicknesses of NP-1, NP-2 and NP-3 were 2.0 nm, 3.65 nm and 6.85 nm, respectively (Table 3).
Purified Cys-CMP (peptides 1′˜4′) (0.5 mL, 500 μM) was added to gold nanoparticle solution (5 mL, 17 nM), and the reaction mixture was incubated at room temperature for twenty-four hours. Excess CMPs were removed by repeated centrifugation and washing in deionized water.

[2] = Measurement of number of peptides per NP (passivation number); assay type: physicochemical
Description: The average number of CMPs on the NPs was determined by measuring the concentrations of free CMPs remaining in solution after the removal of the NPs from a series of incubation mixtures with varying CMP/NP ratios (FIG. 16 and Table 3).^36 The numbers of CMPs immobilized on the NP surfaces were 582, 444, and 399 for NP-1, NP-2, and NP-3, respectively. […] This may have been caused by surface anchoring of the chain ends that prohibited the staggered arrangement of the peptide chains required for the formation of triple helix.
Seven 10 μM Cys-CMP solutions with varying concentrations of citrate-stabilized gold NP (2˜14 nM) were prepared. The mixtures were incubated for 2 hours at 25° C. and the gold NPs were removed by centrifugation. The concentrations of free peptides remaining in the supernatant were determined from the UV-Vis absorbance at 215 nm with citrate ion background subtraction. The number of peptides per Au NP was calculated from the slope of the linear fit of the data points. (FIG. 17)

type I collagen fibers = target: T1, type I collagen fibers (Bos taurus, UniProt P02453+P02465); experiment: TEM analysis of NP binding to reconstituted type I collagen fibers; parameters: species or system bovine; conditions: phosphate buffer at 25° C.
T1 construct: natural collagen (acid soluble, bovine type I); purchased Sigma
T1 sequence (P02453 162-1217 limits assumed): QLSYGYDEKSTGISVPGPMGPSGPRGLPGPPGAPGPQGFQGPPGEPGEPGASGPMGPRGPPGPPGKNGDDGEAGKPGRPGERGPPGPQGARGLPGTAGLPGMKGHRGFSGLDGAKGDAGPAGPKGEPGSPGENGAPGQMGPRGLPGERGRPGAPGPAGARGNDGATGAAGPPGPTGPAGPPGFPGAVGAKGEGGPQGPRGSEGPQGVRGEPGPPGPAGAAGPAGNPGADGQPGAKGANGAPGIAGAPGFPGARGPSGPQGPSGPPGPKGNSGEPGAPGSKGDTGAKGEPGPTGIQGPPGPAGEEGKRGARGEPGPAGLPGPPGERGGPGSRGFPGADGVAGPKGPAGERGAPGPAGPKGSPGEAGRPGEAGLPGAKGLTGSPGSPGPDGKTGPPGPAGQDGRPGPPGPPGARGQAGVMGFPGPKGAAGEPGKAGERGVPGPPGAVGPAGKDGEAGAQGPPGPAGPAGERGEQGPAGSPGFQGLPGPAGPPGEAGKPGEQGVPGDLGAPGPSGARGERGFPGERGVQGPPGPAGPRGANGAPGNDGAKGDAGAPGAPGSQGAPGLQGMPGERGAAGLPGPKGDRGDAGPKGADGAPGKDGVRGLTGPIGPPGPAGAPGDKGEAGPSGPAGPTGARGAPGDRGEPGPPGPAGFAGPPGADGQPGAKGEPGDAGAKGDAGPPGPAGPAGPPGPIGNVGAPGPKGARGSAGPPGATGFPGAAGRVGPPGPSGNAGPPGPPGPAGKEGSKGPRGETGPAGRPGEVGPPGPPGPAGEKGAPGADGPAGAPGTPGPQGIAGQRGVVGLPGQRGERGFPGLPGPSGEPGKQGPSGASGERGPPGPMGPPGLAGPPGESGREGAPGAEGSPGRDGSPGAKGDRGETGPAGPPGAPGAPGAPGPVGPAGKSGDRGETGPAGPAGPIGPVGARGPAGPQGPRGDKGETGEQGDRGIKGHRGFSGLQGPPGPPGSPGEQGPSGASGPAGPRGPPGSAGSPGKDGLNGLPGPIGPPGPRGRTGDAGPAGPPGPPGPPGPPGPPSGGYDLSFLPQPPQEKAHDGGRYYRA
T1 sequence (P02465 80-1117 limits assumed): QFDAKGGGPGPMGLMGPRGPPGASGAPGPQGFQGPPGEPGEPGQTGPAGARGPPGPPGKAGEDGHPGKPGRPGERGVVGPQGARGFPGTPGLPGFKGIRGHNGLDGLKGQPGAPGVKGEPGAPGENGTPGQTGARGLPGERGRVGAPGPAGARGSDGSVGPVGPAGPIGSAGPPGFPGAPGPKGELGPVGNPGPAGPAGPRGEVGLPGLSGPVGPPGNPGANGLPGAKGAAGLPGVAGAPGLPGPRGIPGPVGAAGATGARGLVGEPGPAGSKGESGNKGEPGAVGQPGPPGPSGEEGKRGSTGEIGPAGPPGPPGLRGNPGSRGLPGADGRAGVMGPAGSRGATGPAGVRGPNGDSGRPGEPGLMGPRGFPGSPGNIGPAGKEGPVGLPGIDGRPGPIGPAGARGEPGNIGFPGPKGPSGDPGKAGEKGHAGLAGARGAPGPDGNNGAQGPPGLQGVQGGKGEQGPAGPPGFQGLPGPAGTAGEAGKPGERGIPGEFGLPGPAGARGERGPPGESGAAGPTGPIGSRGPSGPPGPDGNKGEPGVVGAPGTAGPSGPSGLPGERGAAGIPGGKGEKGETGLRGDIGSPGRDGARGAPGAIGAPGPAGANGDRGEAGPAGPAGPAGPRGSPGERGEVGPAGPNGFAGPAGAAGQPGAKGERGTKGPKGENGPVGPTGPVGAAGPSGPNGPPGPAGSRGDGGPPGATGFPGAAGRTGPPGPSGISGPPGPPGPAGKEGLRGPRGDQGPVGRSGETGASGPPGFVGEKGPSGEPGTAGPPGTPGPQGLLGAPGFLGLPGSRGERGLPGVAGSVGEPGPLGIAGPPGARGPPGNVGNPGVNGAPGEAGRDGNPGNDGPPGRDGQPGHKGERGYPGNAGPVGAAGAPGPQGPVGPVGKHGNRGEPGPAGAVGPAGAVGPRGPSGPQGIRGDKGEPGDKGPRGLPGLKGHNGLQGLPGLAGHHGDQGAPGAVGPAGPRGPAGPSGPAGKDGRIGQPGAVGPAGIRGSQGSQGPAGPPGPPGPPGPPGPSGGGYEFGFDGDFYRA
Description: Moreover, NP-3 seemed to bind to defined locations within the gap regions along the fiber axis (FIG. 19C). Due to the large particle size and limitations of transmission electron microscopy resolution, the exact locations of these binding sites could not be determined. Twice as many NP-3 particles per unit area was found in the gap regions (dark bands) than on the overlap regions (light bands) of the collagen fibers. This difference was abolished at incubation temperatures above 40° C. (FIG. 20).
Collagen fibers were regenerated by mixing 0.5 mL of acid soluble type I collagen (1 mg/mL) in 50 mM acetic acid solution with 1 mL of sodium phosphate buffer (10 mM, pH 8.25). The mixture was incubated at room temperature for 12 hours.
A drop (8 μL) of type I collagen solution (0.3 mg/mL in PBS containing 1% BSA) was added to a holey carbon TEM grid. NP-3 solution (3 nM in PBS containing 1% BSA) was added to the grid and incubated for 5 minutes at room temperature or at 40° C., followed by washing with deionized water. The collagen fibers were stained with uranyl acetate (1%).

NP-4: gold nanoparticle functionalized with scrambled peptide 4′ (CGPG[Hyp]P[Hyp]PPGPP[Hyp]G[Hyp][Hyp]P[Hyp]G[Hyp]GG; also: N-terminal Cys bound to gold nanoparticle surface)
Particle Size by DLS [1]: 16.2 ± 3.1 nm | Measured Peptide layer thickness ([1]; DLS): 1.5 nm | Number of peptides per NP [2]: 524 ± 59 | binding to type I collagen fibers (type I collagen fibers): little binding
